Source: paper PMC4793188, “Mechanism and inhibition of human UDP-GlcNAc 2-epimerase, the key enzyme in sialic acid biosynthesis” (Scientific Reports, 2016)

Legend:
[1] = target: the molecule itself; experiment: SEC; gel filtration of the apo-enzyme; data not shown
[2] = target: the molecule itself; experiment: crystal structure; Se-Met protein incubated in 5 mM UDP-GlcNAc and 5 mM CMP-Neu5Ac for 16-18 h at 4 °C; crystals from 0.2 M ammonium acetate, 0.1 M HEPES pH 7.1, 19% PEG 3350; UDP and CMP-Neu5Ac bound; 2.7 Å; space group C2, four monomers in the asymmetric unit

B1: epimerase part of human GNE (UDP-GlcNAc 2-epimerase domain of the bifunctional UDP-GlcNAc 2-epimerase/ManNAc kinase) (domain or fragment)
chain: MEKNGNNRKLRVCVATCNRADYSKLAPIMFGIKTEPEFFELDVVVLGSHLIDDYGNTYRMIEQDDFDINTRLHTIVRGEDEAAMVESVGLALVKLPDVLNRLKPDIMIVHGDRFDALALATSAALMNIRILHIEGGEVSGTIDDSIRHAITKLAHYHVCCTRSAEQHLISMCEDHDRILLAGCPSYDKLLSAKNKDYMSIIRMWLGDDVKSKDYIVALQHPVTTDIKHSIKMFELTLDALISFNKRTLVLFPNIDAGSKEMVRVMRKKGIEHHPNFRAVKHVPFDQFIQLVAHAGCMIGNSSCGVREVGAFGTPVINLGTRQIGRETGENVLHVRDADTQDKILQALHLQFGKQYPCSKIYGDGNAVPRILKFLKSIDLQEPLQKKFCFPPVKENISQDIDHILE
modifications: selenomethionine (Se-Met enriched protein, used for the crystal structure)
notes: UDP-GlcNAc 2-epimerase domain (N-terminal epimerase part, ~400 aa) of human bifunctional UDP-GlcNAc 2-epimerase/ManNAc kinase (GNE, ~720 aa); Cloned into pET21a(+); dimer as apo-enzyme by gel filtration; also called 2-epimerase domain of GNE; recombinant human UDP-GlcNAc 2-epimerase; source: E. coli BL21 (DE3), purified (Ni-NTA, Superdex-200)
B1 was tested, and the “stoichiometry N” value [1] was 2 and the “stoichiometry N” value [2] was 4.
